From article doi:10.1101/2025.01.27.635100 (bioRxiv, 2025)
Where “and” joins values, the source holds several entries; their conditions need not be identical. Equal values may be shown once.

T1: S1’’ (S1_(622-762)), extended version of S1_TPR3 (human, UniProt Q07617 622-762)
T1 sequence: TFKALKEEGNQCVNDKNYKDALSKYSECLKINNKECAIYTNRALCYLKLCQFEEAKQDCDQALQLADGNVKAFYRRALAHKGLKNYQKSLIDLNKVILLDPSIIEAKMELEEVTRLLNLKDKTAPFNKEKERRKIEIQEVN

B1: S1’P2 heterodimer, SPR preparation (complex)
chain 1: TFKALKEEGNQCVNDKNYKDALSKYSECLKINNKECAIYTNRALCYLKLCQFEEAKQDCDQALQLADGNVKAFYRRALAHKGLKNYQKSLIDLNKVILLDPSIIEAKMELEEVTRLLNLKDKTAPFNKEKERRKIEIQEVNEGKEEPGRPAGEVSMGCLASEKGGKSSRSPEDPEKLPIAKPNNAYEFGQIINALSTRKDKEACAHLLAITAPKDLPMFLSNKLEGDTFLLLIQSLKNNLIEKDPSLVYQHLLYLSKAERFKMMLTLISKGQKELIEQLFEDLSDTPNNHFTLEDIQALKRQYEL
chain 2: METSSKGLLTQVTQFWNLLDDLAQSDPEGYEKFIQQQLKEGKQLCAAPEPQLCLQTRILKPKEKILFINLCQWTRIPAPQSTTHPVPLTVGKPEDTTEISDAYTVIDVAYNPDVLHAAEKDQVKKNQLIQMAMKCIEEKFQFTLSHSYHITKFRIKGSIQRMKQNLMGIQTDSIDLREKMRRELTLGQIRSSTMSNPDHFPQLLLPKDQVSGKAVCLIEEISSTEIQVEMKMPAYELKIVHDHSEKPLKIELKVELPGINSVSLCDLSVSEDDLLIEVSEKYRLHLNLPKLIDTEMTTAKFIKEKSTLIITMPLV
B2: S1’ (SPAG1 622-926), untagged, co-expressed with His-P2 (domain or fragment)
chain: B1 chain 1
B3: S1’P2 heterodimer, preparation for cryo-EM, native MS, mass photometry and XL-MS (complex)
chain 1: B1 chain 1
chain 2: B1 chain 2
B4: P2 (PIH1D2), His tag cleaved, co-purified with S1’ (natural protein)
chain: B1 chain 2
B5: S1’P2_(231-315) heterodimer, SPR preparation (complex)
chain 1: B1 chain 1
chain 2: KMPAYELKIVHDHSEKPLKIELKVELPGINSVSLCDLSVSEDDLLIEVSEKYRLHLNLPKLIDTEMTTAKFIKEKSTLIITMPLV
B6: P2_CS domain (P2_(231-315)) (domain or fragment)
chain: B5 chain 2
B7: S1_C (SPAG1 796-926), isotope-labelled NMR sample (domain or fragment)
chain: EKLPIAKPNNAYEFGQIINALSTRKDKEACAHLLAITAPKDLPMFLSNKLEGDTFLLLIQSLKNNLIEKDPSLVYQHLLYLSKAERFKMMLTLISKGQKELIEQLFEDLSDTPNNHFTLEDIQALKRQYEL

How the values were obtained:
[1] = biological target: R1^D302N R2^D299N complex, double active site mutant (no hydrolysis, ATP loaded) (human, UniProt Q9Y265;Q9Y230, D302N | D299N); test: SPR
Sequence of R1^D302N R2^D299N complex, double active site mutant (no hydrolysis, ATP loaded) (Q9Y265 whole entry D302N, chain 1 of 2): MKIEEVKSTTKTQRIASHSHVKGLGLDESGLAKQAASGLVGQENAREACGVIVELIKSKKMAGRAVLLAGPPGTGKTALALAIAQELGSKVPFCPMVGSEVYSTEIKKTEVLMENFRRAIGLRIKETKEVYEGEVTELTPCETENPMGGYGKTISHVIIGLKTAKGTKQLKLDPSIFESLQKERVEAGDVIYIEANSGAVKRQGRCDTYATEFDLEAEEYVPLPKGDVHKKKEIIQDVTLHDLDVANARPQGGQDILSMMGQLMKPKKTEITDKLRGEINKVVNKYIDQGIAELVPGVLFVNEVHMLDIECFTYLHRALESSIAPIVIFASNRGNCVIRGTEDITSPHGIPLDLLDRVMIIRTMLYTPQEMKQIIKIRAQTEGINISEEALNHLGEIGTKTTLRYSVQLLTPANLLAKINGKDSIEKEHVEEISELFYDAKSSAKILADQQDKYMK
Sequence of R1^D302N R2^D299N complex, double active site mutant (no hydrolysis, ATP loaded) (Q9Y230 whole entry D299N, chain 2 of 2): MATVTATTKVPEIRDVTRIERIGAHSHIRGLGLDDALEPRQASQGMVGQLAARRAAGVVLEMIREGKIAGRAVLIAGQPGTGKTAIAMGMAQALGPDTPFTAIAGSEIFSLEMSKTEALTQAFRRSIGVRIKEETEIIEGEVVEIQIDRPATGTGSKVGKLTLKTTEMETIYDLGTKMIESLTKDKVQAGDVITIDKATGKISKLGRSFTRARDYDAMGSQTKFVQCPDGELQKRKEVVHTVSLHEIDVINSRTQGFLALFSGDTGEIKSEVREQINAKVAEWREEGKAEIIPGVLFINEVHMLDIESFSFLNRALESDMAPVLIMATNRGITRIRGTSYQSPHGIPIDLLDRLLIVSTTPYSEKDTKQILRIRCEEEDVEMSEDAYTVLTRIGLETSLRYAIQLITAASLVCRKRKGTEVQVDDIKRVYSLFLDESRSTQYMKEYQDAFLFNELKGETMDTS

[2] = biological target: B4; test: cross-linking
[3] = biological target: RUVBL2 (R2) as a chain of the reconstituted R2S’P sample (human, UniProt Q9Y230 1-463); test: cross-linking
Sequence of RUVBL2 (R2) as a chain of the reconstituted R2S’P sample (Q9Y230 whole entry): as the sequence (Q9Y230 whole entry D299N, chain 2 of 2) above, with N299D counted along it

[4] = biological target: T2, R1R2 hetero-hexamer (pETDuet:His-R1R2-FH8), preparation for cryo-EM, native MS, mass photometry and XL-MS (human, UniProt Q9Y265;Q9Y230); test: mass photometry
T2 sequence (Q9Y265 whole entry, chain 1 of 2): as the sequence (Q9Y265 whole entry D302N, chain 1 of 2) above, with N302D counted along it
T2 sequence (Q9Y230 whole entry, chain 2 of 2): as the sequence (Q9Y230 whole entry D299N, chain 2 of 2) above, with N299D counted along it

[5] = biological target: T2, R1R2 hetero-hexamer …; test: native MS
[6] = biological target: RUVBL1 (R1) as a chain of the reconstituted R2S’P sample (human, UniProt Q9Y265 1-456); test: cross-linking
Sequence of RUVBL1 (R1) as a chain of the reconstituted R2S’P sample (Q9Y265 whole entry): as the sequence (Q9Y265 whole entry D302N, chain 1 of 2) above, with N302D counted along it

[7] = biological target: T1, S1’’ (S1_(622-762)), extended version …; test: NMR
[8] = biological target: R1R2 complex (6xHis-R1, 3xFLAG-R2), unlabeled, NMR interaction experiments (human, UniProt Q9Y265;Q9Y230); test: NMR titration
Sequence of R1R2 complex (6xHis-R1, 3xFLAG-R2), unlabeled, NMR interaction experiments (Q9Y265 whole entry, chain 1 of 2): as the sequence (Q9Y265 whole entry D302N, chain 1 of 2) above, with N302D counted along it
Sequence of R1R2 complex (6xHis-R1, 3xFLAG-R2), unlabeled, NMR interaction experiments (Q9Y230 whole entry, chain 2 of 2): as the sequence (Q9Y230 whole entry D299N, chain 2 of 2) above, with N299D counted along it

Binder: B1
binding result [1]: binds

Binder: B2
binding result [2]: binds
binding result [3]: binds

Binder: B3
stoichiometry N [4]: 1 S1’P2 per R1R2 hexamer and 2 S1’P2 per R1R2 hexamer and 1 S1’P2 per R1R2 dodecamer and 2 S1’P2 per R1R2 dodecamer
stoichiometry N [5]: 1 S’P2 per R1R2 hexamer and 2 S’P2 per R1R2 hexamer

Binder: B4
binding result [6]: binds
binding result [3]: binds

Binder: B5
binding result [1]: binds

Binder: B6
binding result [7]: binds

Binder: B7
binding result [8]: binds
